Target: amylin receptors (rat basal forebrain membranes, containing the nucleus accumbens and surrounding regions) (rat)
Assay: competition radioligand binding, displacement of 125I-rat amylin from rat basal forebrain membranes

Row | Molecule | IC50 [nM]
1 | 28Pro-human-Amylin (peptide) | 0.015
2 | KCNTATCATQRLANFLVHSSNNFGPILPPTNVGSNTY (2,7-disulfide; made on methylbenzhydrylamine resin (C-terminal amide not spelled out)) [25,28,29Pro-h-Amylin] | 0.01

Reference: patent US7271238
